# Measured values taken from article PMC10715029, “Interaction and assembly of the DNA replication core proteins of Kaposi’s sarcoma-associated herpesvirus” (Microbiology Spectrum, 2023).
# T1: GAL4-ORF56 (Kaposi's sarcoma-associated herpesvirus …, UniProt Q76RG1 1-843)
# T1 construct: KSHV ORF56, primase (PRI); also called GALF4-ORF56; source: 293T, transfected, mammalian two-hybrid fusion
# T1 sequence: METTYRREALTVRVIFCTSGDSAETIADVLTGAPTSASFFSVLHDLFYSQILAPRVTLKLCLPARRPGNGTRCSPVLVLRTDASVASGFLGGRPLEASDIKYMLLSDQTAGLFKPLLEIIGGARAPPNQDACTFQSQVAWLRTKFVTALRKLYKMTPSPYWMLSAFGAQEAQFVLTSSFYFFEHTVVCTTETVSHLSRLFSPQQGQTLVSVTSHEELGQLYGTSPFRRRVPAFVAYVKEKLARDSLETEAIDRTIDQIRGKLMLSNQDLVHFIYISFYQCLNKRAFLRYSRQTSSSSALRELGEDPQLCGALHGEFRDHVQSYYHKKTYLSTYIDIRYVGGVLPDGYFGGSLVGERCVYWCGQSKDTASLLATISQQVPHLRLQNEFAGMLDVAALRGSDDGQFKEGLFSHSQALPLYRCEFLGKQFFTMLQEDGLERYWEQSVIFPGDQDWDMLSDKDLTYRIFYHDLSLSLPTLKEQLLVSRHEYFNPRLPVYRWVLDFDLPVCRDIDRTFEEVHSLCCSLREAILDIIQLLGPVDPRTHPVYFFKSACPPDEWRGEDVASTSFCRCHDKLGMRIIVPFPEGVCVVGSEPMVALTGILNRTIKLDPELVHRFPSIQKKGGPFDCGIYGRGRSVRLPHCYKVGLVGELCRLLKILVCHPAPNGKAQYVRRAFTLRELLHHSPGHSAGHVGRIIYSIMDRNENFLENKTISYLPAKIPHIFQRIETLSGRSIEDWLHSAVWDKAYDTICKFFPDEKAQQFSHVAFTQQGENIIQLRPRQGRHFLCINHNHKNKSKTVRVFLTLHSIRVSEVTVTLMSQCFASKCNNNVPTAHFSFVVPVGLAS
# T2: GAL4-ORF40/41 (Kaposi's sarcoma-associated herpesvirus …, UniProt Q2HR92 1-669)
# T2 construct: KSHV ORF40/41, primase-associated factor (PAF); source: 293T, transfected, mammalian two-hybrid fusion
# T2 sequence: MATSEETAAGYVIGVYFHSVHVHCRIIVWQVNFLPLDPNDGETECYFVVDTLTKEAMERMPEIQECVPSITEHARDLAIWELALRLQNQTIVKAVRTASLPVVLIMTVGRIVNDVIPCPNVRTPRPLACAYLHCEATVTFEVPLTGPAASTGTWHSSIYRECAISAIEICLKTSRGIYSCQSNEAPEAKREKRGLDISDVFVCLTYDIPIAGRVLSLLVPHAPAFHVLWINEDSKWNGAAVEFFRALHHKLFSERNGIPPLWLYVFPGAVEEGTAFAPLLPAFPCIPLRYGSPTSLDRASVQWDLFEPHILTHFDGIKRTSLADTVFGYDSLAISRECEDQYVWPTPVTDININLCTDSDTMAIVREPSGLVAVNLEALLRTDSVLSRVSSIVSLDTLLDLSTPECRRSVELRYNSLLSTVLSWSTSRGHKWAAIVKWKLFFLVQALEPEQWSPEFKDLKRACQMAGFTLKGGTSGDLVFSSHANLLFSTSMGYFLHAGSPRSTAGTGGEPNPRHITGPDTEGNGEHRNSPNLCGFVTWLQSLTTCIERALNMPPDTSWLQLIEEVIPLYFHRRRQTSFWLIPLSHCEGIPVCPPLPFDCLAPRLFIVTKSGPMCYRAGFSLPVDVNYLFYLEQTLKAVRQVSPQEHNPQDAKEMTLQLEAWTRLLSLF
# B1: VP16-ORF40/41 (natural protein)
# chain: T2 sequence
# notes: KSHV ORF40/41, primase-associated factor (PAF); source: 293T, transfected, mammalian two-hybrid fusion
# B2: VP16-ORF44 (natural protein)
# chain: MDSSEGCTDMDEPSPGFILNMTSDAKVRSVVEQIDRLSNITTSPPEMGWYDLEFDPLEDEGPFLPFSAYVITGTAGAGKSTSVSALHQNLNCLITGATVVAAQNLSRALKSYCPTIYHAFGFKSRHINICQRKVPKVTQSSIEQLQRYELARYWPTVTDIIREFMRKKQKGQYSSLSQSAFRLLCRMGGANLWTSNIIVIDEAGTLSSHILTAVVFFYWFYNSWLDTPLYRNGAVPCIVCVGSPTQTDAFQSVFNHTQQRNEISACDNVLTFLLGKREVADYIRLDENWALFINNKRCTDPQFGHLLKTLEYNLDISPELMDYIDRFVVPKSKILDPLEYAGWTRLFISHQEVKSFLATLHTCLSSNKDAVSTKLFTCPVVCEVFTEPFEEYKRAVGLTHMTPIEWVTKNLFRLSNYSQFADQDMAVVGTYITDASTQITFATKFVKNSYATLTGKTKKCICGFHGSYQRFKSILDGELFIESHSHDNPAYVYSFLSTLLYNAMYSFYAHGVKQGHEEFLRDLRELPVSQELISEMSSEDVLGQEGDTDAFYLTASLPPSPTHAALPTLVAYYSGAKELFCNRLALARRHFGDEFLHSDFSTFTVNIVVRDGVDFVSTSPGLHGLVAYASTIDTYIIQGYTFLPVRFGRPGGQRLSEDLRRKMPSIVVQDSSGFIACLENNVTKMTETLEGGDVFNICCAGDYGISSNLAMTIVKAQGVSLSRVAISFGNHRNIRASLVYVGVSRAIDARYLVMDSNPLKLMDRGDAQSPSSKYIIKALCNPKTTLIY
# notes: KSHV ORF44, helicase (HEL); source: 293T, transfected, mammalian two-hybrid fusion
# B3: VP16-ORF6 (natural protein)
# chain: MALKGPQTLEENIGSAAPTGPCGYLYAYVTHNFPIGEASLLGNGYPEAKVFSLPLLHGLTVESDFPLNVKAVHKKIDATTASVKLTSYHREAIVFHNTHLFQPIFQGKGLEKLCRESRELFGFSTFVEQQHKGTLWSPEACPQLPCANEIFMAVIVTEGFKERLYGGKLVPVPSQTTPVHIGEHQAFKIPLYDEDLFGPSRAQELCRFYNPDISRYLHDSIFTGIAQALRVKDVSTVIQASERQFVHDQYKIPKLVQAKDFPQCASRGTDGSTLMVIDSLVAELGMSYGLSFIEGPQDSCEVLNYDTWPIFENCETPDARLRALEVWHAEQALHIGAQLFAANSVLYLTRVAKLPQKNQRGDANMYNSFYLQHGLGYLSEATVKENGASAFKGVPVSALDGSSYTLQHLAYASSFSPHLLARMCYYLQFLPHHKNTNSQSYNVVDYVGTAAPSQMCDLCQGQCPAVCINTLFYRMKDRFPPVLSNVKRDPYVITGTAGTYNDLEILGNFATFREREEEGNPVEDAPKYTYWQLCQNITEKLASMGISEGGDALRTLIVDIPSFVKVFKGIDSTVEAELLKFINCMIKNNYNFRENIKSVHHILQFACNVYWQAPCPVFLTLYYKSLLTVIQDICLTSCMMYEQDNPAVGIVPSEWLKMHFQTMWTNFKGACFDKGAITGGELKIVHQSMFCDLFDTDAAIGGMFAPARMQVRIARAMLMVPKTIKIKNRIIFSNSTGAESIQAGFMKPASQRDSYIVGGPYMKFLNALHKTLFPSTKTSALYLWHKIGQTTKNPILPGVSGEHLTELCNYVKASSQAFEEINVLDLVPDTLTSYAKIKLNSSILRACGQTQFYATTLSCLSPVTQLVPAEEYPHVLGPVGLSSPDEYRVKVAGRSVTIVQSTLKQAVSTNGRLRPIITVPLVVNKYTGSNGNTNVFHCANLGYFSGRGVDRNLRPESVPFKKNNVSSMLRKRHVIMTPLVDRLVKRIVGINSGEFEAEAVKRSVQNVLEDRDNPNLPKTVVLELVKHLGSSCASLTEEDVIYYLGPYAVLGDEVLSLLSTVGQAGVPWTAEGVASVIQDIIDDCELQFVGPEEPCLIQGQSVVEELFPSPGVPSLTVGKKRKIASLLSDLDL
# notes: source: 293T, transfected, mammalian two-hybrid fusion
# Experiments:
# Conditions in all cases: partners not purified
# [1] = molecular target: T1, GAL4-ORF56; experiment: two-hybrid; mammalian two-hybrid (GAL4/VP16) in 293T cells, pGal4(5×)-Luc reporter, GAL4 and VP16 fusions coexpressed with further FLAG-tagged core replication proteins, luciferase at 24 h, fold activation over empty vector; radicicol (0.25-1 µM) inhibited the activation by GAL4-ORF56, VP16-ORF44 and F-ORF40/41 dose-dependently
# [2] = molecular target: T2, GAL4-ORF40/41; experiment: as above
# [3] = molecular target: T2, GAL4-ORF40/41; experiment: two-hybrid; mammalian two-hybrid (GAL4/VP16) in 293T cells, pGal4(5×)-Luc reporter, only the GAL4 and the VP16 fusion coexpressed, luciferase at 24 h, fold activation over empty vector; radicicol (0.25-1 µM) inhibited the activation by GAL4-ORF59 and VP16-ORF9 dose-dependently
binder,measurement,setting,value
B1,fold reporter activation (F-ORF44 coexpressed),[1],≤ 280 fold
B2,fold reporter activation (F-ORF40/41 coexpressed),[1],≤ 55 fold
same,fold reporter activation (F-ORF56 coexpressed),[2],≤ 60 fold
B3,fold reporter activation,[3],56 fold
